These results are taken from US20210155676A1 (Gilead, published 2021).

The target of test [1] is HIV-1 92US712 Env (on virus) (HIV-1 isolate 92US712). The test can be described thus: cell-based or functional assay.
The target of test [2] is HIV-1 93HT593 Env (on virus) (HIV-1 isolate 93HT593). The test can be described thus: cell-based or functional assay.
Test [3] deals with HIV-1 92US727 Env (on virus) (HIV-1 isolate 92US727). The test can be described thus: cell-based or functional assay.
Test [4] deals with HIV-1 BaL Env (on virus) (HIV-1 strain BaL). Briefly: cell-based or functional assay.
Test [5] has as its target HIV-1 92US657 Env (on virus) (HIV-1 isolate 92US657). Briefly: cell-based or functional assay.
For test [6], the target named is T1, Human FcRn (human, UniProt P55899 24-297; P61769 21-119).
T1 construct: also called neonatal Fc receptor
T1 sequence (P55899 24-297 limits assumed, chain 1 of 2): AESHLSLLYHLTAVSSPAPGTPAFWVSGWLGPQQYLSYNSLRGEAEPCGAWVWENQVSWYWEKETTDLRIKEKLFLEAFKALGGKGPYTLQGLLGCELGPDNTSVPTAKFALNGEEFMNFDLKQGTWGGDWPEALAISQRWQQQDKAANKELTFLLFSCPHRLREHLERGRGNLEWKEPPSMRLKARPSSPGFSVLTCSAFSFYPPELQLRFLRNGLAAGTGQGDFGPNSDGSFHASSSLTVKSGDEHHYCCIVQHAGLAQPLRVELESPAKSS
T1 sequence (P61769 21-119 limits assumed, chain 2 of 2): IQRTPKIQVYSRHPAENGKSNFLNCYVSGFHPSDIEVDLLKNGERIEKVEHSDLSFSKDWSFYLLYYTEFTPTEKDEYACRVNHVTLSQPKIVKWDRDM
The test can be described thus: ELISA, FcRn coated on plate, pH 7.0.
Protocol: (§1) The binding of antibodies to FcRn of various species at different pHs was determined. A 96-well Maxisorp plate was coated with 100 ul of 5 μg/ml FcRn. The plate was incubated overnight at 4° C., and then blocked with 4% skim milk for 2 hr at room temperature after washing 3 times with 0.05% Tween 20 washing buffer. The plate was incubated with 3 fold serial dilution of primary antibody for 1 hr at room temperature. The plate was then washed 3 times and 100 of Fab-anti-human Fab-HRP or Goat anti-human IgG-HRP secondary antibody diluted in 4% skimmed milk was added. Plates were then incubated 50 min at room temperature, washed three times, and 100 μL fresh TMB substrate was added. Plates were developed for 3 minutes on bench with gentle shaking. Plate was quenched with 100 μL 1M HCl, shaken briefly, read at A450 on a spectramax m5 plate reader.

In test [7] the target is T1, Human FcRn. Briefly: ELISA, FcRn coated on plate, pH 6.0.
Protocol: as §1
The target of test [8] is human FcγRIIIA on primary NK effector cells (human, UniProt P08637 17-254). The test can be described thus: cell-based or functional assay.
Sequence of human FcγRIIIA on primary NK effector cells (P08637 17-254): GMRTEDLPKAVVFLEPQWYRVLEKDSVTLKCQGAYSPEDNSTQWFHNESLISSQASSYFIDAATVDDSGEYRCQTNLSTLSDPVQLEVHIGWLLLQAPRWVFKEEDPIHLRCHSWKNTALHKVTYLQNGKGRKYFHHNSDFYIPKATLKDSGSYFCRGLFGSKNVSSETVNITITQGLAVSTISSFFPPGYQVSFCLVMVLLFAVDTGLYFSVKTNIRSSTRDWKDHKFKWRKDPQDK
The target in test [9] is T1, Human FcRn. Briefly: ELISA, ratio of EC50 at pH 7.0 to EC50 at pH 6.0. Background: In an ELISA, binding on a coated surface is turned into a signal by an enzyme label.
Protocol: as §1
The target of test [10] is T1, Human FcRn. Briefly: ELISA, pH 7.0/6.0 ratio relative to PGT121.
Protocol: as §1

B1: PGT121.60 hIgG1/hLambda (antibody)
heavy: QMQLQESGPGLVKPSETLSLTCSVSGASISDSYWSWIRRSPGKGLEWIGYVHKSGDTNYNPSLKSRVHLSLDTSKNQVSLSLTGVTAADSGKYYCARTLHGRRIYGIVAFNEWFTYFYMDVWGTGTQVTVSSASTKGPSVFPLAPSSKSTSGGTAALGCLVKDYFPEPVTVSWNSGALTSGVHTFPAVLQSSGLYSLSSVVTVPSSSLGTQTYICNVNHKPSNTKVDKKVEPKSCDKTHTCPPCPAPELLAGPDVFLFPPKPKDTLMISRTPEVTCVVVDVSHEDPEVKFNWYVDGVEVHNAKTKPREEQYNSTYRVVSVLTVLHQDWLNGKEYKCKVSNKALPLPEEKTISKAKGQPREPQVYTLPPSREEMTKNQVSLTCLVKGFYPSDIAVEWESNGQPENNYKTTPPVLDSDGSFFLYSKLTVDKSRWQQGNVFSCSVLHEALHSHYTQKSLSLSPGK
light: not shown
As to B1, in [1], the “neutralization IC50, HIV-1 US712, CEM.NKr.CCR5.Luc assay” value was 8 ng/mL. In [2], the “neutralization IC50, HIV-1 HT593, CEM.NKr.CCR5.Luc assay” value was found to be 141 ng/mL. Besides, in test [3], the “neutralization IC50, HIV-1 US727, CEM.NKr.CCR5.Luc assay” value was 7 ng/mL. For the same molecule, in [4], the “neutralization IC50, HIV-1 BaL, CEM.NKr.CCR5.Luc assay” value stood at 7 ng/mL. Moreover, the “neutralization IC50, HIV-1 US657, CEM.NKr.CCR5.Luc assay” value in [5] came to 62 ng/mL.

B2: PGT121.56 hIgG1/hLambda (antibody)
heavy: QMQLQESGPGLVKPSETLSLTCSVSGASISDSYWSWIRRSPGKGLEWIGYVHKSGDTNYSPSLKSRVNLSLDTSKNQVSLSLVAATAADSGKYYCARTLHGRRIYGIVAFNEWFTYFYMDVWGNGTQVTVSSASTKGPSVFPLAPSSKSTSGGTAALGCLVKDYFPEPVTVSWNSGALTSGVHTFPAVLQSSGLYSLSSVVTVPSSSLGTQTYICNVNHKPSNTKVDKKVEPKSCDKTHTCPPCPAPELLAGPDVFLFPPKPKDTLMISRTPEVTCVVVDVSHEDPEVKFNWYVDGVEVHNAKTKPREEQYNSTYRVVSVLTVLHQDWLNGKEYKCKVSNKALPLPEEKTISKAKGQPREPQVYTLPPSREEMTKNQVSLTCLVKGFYPSDIAVEWESNGQPENNYKTTPPVLDSDGSFFLYSKLTVDKSRWQQGNVFSCSVLHEALHSHYTQKSLSLSPGK
light: not shown
What is called EC50 is the midpoint of the concentration-response curve. High values mean a less potent agent, low ones a more potent agent. Regarding B2, the EC50 in test [6] turned out to be 102 nM. Moreover, in test [7], the EC50 is 0.47 nM. In test [8], the “ADCC AUC, NK donor A4813, primary CD4+ T cells infected with HT593” value (“ADCC AUC, NK donor A4813 … with HT593” for short) came out at 161; the “ADCC AUC, NK donor A4813, primary CD4+ T cells infected with US657” value (“ADCC AUC, NK donor A4813 … with US657” below) was 219; the “ADCC EC50, NK donor A4813, primary CD4+ T cells infected with HT593” value (shortened to “ADCC EC50, NK donor A4813 … with HT593”) came out at 6.3 nM; the “ADCC Emax, NK donor A4813, primary CD4+ T cells infected with HT593” value (from here on “ADCC Emax, NK donor A4813 … with HT593”) came to 72%. Also, the “ADCC Emax, NK donor A4813, primary CD4+ T cells infected with US657” value (“ADCC Emax, NK donor A4813 … with US657” for short) in test [8] turned out to be 71%.

B3: PGT121.64 hIgG1/hLambda (antibody)
heavy: QLQLQESGPGLVKPSETLSLTCSVSGASISDAYWSWIRRSPGKGLEWIGYVHKSGDTNYNPSLKSRVHLSLDTSKNQVSLSLTGVTAADSGKYYCARALHGRRIYGIVAFNEWFTYFYMDVWGTGTQVTVSSASTKGPSVFPLAPSSKSTSGGTAALGCLVKDYFPEPVTVSWNSGALTSGVHTFPAVLQSSGLYSLSSVVTVPSSSLGTQTYICNVNHKPSNTKVDKKVEPKSCDKTHTCPPCPAPELLAGPDVFLFPPKPKDTLMISRTPEVTCVVVDVSHEDPEVKFNWYVDGVEVHNAKTKPREEQYNSTYRVVSVLTVLHQDWLNGKEYKCKVSNKALPLPEEKTISKAKGQPREPQVYTLPPSREEMTKNQVSLTCLVKGFYPSDIAVEWESNGQPENNYKTTPPVLDSDGSFFLYSKLTVDKSRWQQGNVFSCSVLHEALHSHYTQKSLSLSPGK
light: not shown
On to B3, for which the EC50 in [6] came out at 125 nM. Further, in test [7], the EC50 turned out to be 1.59 nM. The “Ratio pH 7.0/6.0” value in test [9] came to 79. Besides, in test [10], the “Fold vs PGT121” value came out at 2 fold. In addition, in test [8], the “ADCC AUC, NK donor A4813 … with HT593” value amounted to 167; the “ADCC AUC, NK donor A4813 … with US657” value came to 188; the “ADCC EC50, NK donor A4813 … with HT593” value turned out to be 1.4 nM; the “ADCC EC50, NK donor A4813, primary CD4+ T cells infected with US657” value (“ADCC EC50, NK donor A4813 … with US657” for short) is 1.6 nM. In test [8], the “ADCC Emax, NK donor A4813 … with HT593” value is 66% and the “ADCC Emax, NK donor A4813 … with US657” value was 70%.

B4: PGT121.42 hIgG1/hLambda (antibody)
heavy: QMQLQESGPGLVKPSETLSLTCSVSGASISDSYWSWIRRSPGKGLEWIGYVHKSGDTNYNPSLKSRVHLSLDTSKNQVSLSLSSVTAADSGKYYCARTLHGRRIYGIVAFNEWFTYFYMDVWGKGTQVTVSSASTKGPSVFPLAPSSKSTSGGTAALGCLVKDYFPEPVTVSWNSGALTSGVHTFPAVLQSSGLYSLSSVVTVPSSSLGTQTYICNVNHKPSNTKVDKKVEPKSCDKTHTCPPCPAPELLAGPDVFLFPPKPKDTLMISRTPEVTCVVVDVSHEDPEVKFNWYVDGVEVHNAKTKPREEQYNSTYRVVSVLTVLHQDWLNGKEYKCKVSNKALPLPEEKTISKAKGQPREPQVYTLPPSREEMTKNQVSLTCLVKGFYPSDIAVEWESNGQPENNYKTTPPVLDSDGSFFLYSKLTVDKSRWQQGNVFSCSVLHEALHSHYTQKSLSLSPGK
light: not shown
notes: also called PTG121.42
As to B4, a half-maximal response in test [6] (EC50) required 69.8 nM. In [7], this molecule came in with a half-maximal effective concentration (EC50) of 0.41 nM. The “Ratio pH 7.0/6.0” value in test [9] came to 170. The “Fold vs PGT121” value in [10] is 5 fold. Besides, in [8], the “ADCC AUC, NK donor A4813 … with HT593” value came out at 191; the “ADCC AUC, NK donor A4813 … with US657” value amounted to 222; the “ADCC EC50, NK donor A4813 … with HT593” value amounted to 4.9 nM; the “ADCC EC50, NK donor A4813 … with US657” value stood at 1.4 nM. In addition, in [8], the “ADCC Emax, NK donor A4813 … with HT593” value is 71% and the “ADCC Emax, NK donor A4813 … with US657” value came out at 72%.

B5: PGT121.65 hIgG1/hLambda (antibody)
heavy: QLQLQESGPGLVKPSETLSLTCSVSGASISDAYWSWIRRSPGKGLEWIGYVHKSGDTNYNPSLKSRVHLSLDTSKNQVSLSLTGVTAADSGKYYCARALHGRRIYGIVAFNEWFTYFYMDVWGTGTQVTVSSASTKGPSVFPLAPSSKSTSGGTAALGCLVKDYFPEPVTVSWNSGALTSGVHTFPAVLQSSGLYSLSSVVTVPSSSLGTQTYICNVNHKPSNTKVDKKVEPKSCDKTHTCPPCPAPELLAGPDVFLFPPKPKDTLMISRTPEVTCVVVDVSHEDPEVKFNWYVDGVEVHNAKTKPREEQYNSTYRVVSVLTVLHQDWLNGKEYKCKVSNKALPLPEEKTISKAKGQPREPQVYTLPPSREEMTKNQVSLTCLVKGFYPSDIAVEWESNGQPENNYKTTPPVLDSDGSFFLYSKLTVDKSRWQQGNVFSCSVLHEALHSHYTQKSLSLSPGK
light: SDISVAPGETARISCGEKSLGSRAVQWYQHRAGQAPSLIIYNNQDRPSGIPERFSGSPDSRPGTTATLTITSVEAGDEADYYCHIWDSRVPTKWVFGGGTKLTVLGQPKAAPSVTLFPPSSEELQANKATLVCLISDFYPGAVTVAWKADSSPVKAGVETTTPSKQSNNKYAASSYLSLTPEQWKSHRSYSCQVTHEGSTVEKTVAPTECS
In test [6], B5 had an EC50 of 104 nM. This molecule registered a half-maximal effective concentration (EC50) in [7] of 0.57 nM. In addition, the “Ratio pH 7.0/6.0” value in test [9] turned out to be 182. For the same molecule, in test [10], the “Fold vs PGT121” value is 6 fold. Further, in [8], the “ADCC AUC, NK donor A4813 … with HT593” value was 158; the “ADCC AUC, NK donor A4813 … with US657” value is 190; the “ADCC EC50, NK donor A4813 … with HT593” value is 2.6 nM; the “ADCC EC50, NK donor A4813 … with US657” value is 3.2 nM. Further, in [8], the “ADCC Emax, NK donor A4813 … with HT593” value stood at 71% and the “ADCC Emax, NK donor A4813 … with US657” value stood at 75%.

B6: PGT121.61 hIgG1/hLambda (antibody)
heavy: QMQLQESGPGLVKPSETLSLTCSVSGASISDSYWSWIRRSPGKGLEWIGYVHKSGDTNYNPSLKSRVHLSLDTSKNQVSLSLTGVTAADSGKYYCARTLHGRRIYGIVAFNEWFTYFYMDVWGTGTQVTVSSASTKGPSVFPLAPSSKSTSGGTAALGCLVKDYFPEPVTVSWNSGALTSGVHTFPAVLQSSGLYSLSSVVTVPSSSLGTQTYICNVNHKPSNTKVDKKVEPKSCDKTHTCPPCPAPELLAGPDVFLFPPKPKDTLMISRTPEVTCVVVDVSHEDPEVKFNWYVDGVEVHNAKTKPREEQYNSTYRVVSVLTVLHQDWLNGKEYKCKVSNKALPLPEEKTISKAKGQPREPQVYTLPPSREEMTKNQVSLTCLVKGFYPSDIAVEWESNGQPENNYKTTPPVLDSDGSFFLYSKLTVDKSRWQQGNVFSCSVLHEALHSHYTQKSLSLSPGK
light: SDISVAPGETARISCGEKSLGSRAVQWYQHRAGQAPSLIIYNNQDRPSGIPERFSGSPDSRPGTTATLTITSVEAGDEADYYCHIWDSRVPTKWVFGGGTKLTVLGQPKAAPSVTLFPPSSEELQANKATLVCLISDFYPGAVTVAWKADSSPVKAGVETTTPSKQSNNKYAASSYLSLTPEQWKSHRSYSCQVTHEGSTVEKTVAPTECS
Turning to B6, the concentration giving a half-maximal response (EC50) in test [6] was 140 nM. The same molecule gave an EC50 in [7] of 0.13 nM. In addition, the “Ratio pH 7.0/6.0” value in test [9] was 1070. Besides, the “Fold vs PGT121” value in test [10] is 33 fold. In test [8], the “ADCC AUC, NK donor A4813 … with HT593” value worked out at 169; the “ADCC AUC, NK donor A4813 … with US657” value came out at 190; the “ADCC EC50, NK donor A4813 … with HT593” value was 2.2 nM; the “ADCC EC50, NK donor A4813 … with US657” value is 1.3 nM. Further, in test [8], the “ADCC Emax, NK donor A4813 … with HT593” value was 70% and the “ADCC Emax, NK donor A4813 … with US657” value is 72%.
